From the supplement of paper PMC10567573

B1: PDLIM7 (parent)
chain: AAGGVPGGGSNNGKTPVCHQCHKV
B2: ANKRD40 (parent)
chain: SLRENDFIEIELDRQELTYQELLR

Variants of: B1
Assay: protein stability index of a GFP-peptide fusion (GPS, HEK-293T) (PSI 1-6); higher = more stable
Settings: c terminus: a fixed tail appended
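Note: lentivirally expressed fusions sorted by FACS into six bins by GFP to DsRed ratio, PSI derived from sequencing read proportions per bin multiplied by bin number.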

Protein stability index: each site, then its substitutions
G7: H 3.68 | I 3.1 | R 3.89 | C 3.49 | N 4.05 | Q 3.93 | W 2.26 | L 3.47 | D 4.3 | K 4.09 | Y 3.4 | T 3.56 | M 2.06 | F 2.9 | V 3.53 | S 3.95 | P 3.4 | E 4.47
A1: K 3.36 | F 2.45 | S 2.44 | G 3.52 | P 3.33 | V 3.93 | L 3.76 | T 2.73 | E 4.24 | W 3.22 | C 3.35 | Y 1.95 | I 3.52 | H 4.13 | N 3.03 | R 2.36 | M 3.5 | D 4.34
P6: V 3.04 | C 3.05 | I 2.57 | R 3.73 | F 2.85 | K 4.05 | Q 3.42 | E 4.88 | Y 3.73 | W 1.96 | L 3.23 | G 2.19 | M 4.35 | N 3.46
A2: K 4.11 | R 3.33 | L 3.53 | M 3.78 | P 2.15 | W 3.88 | H 3.63 | G 3.43 | E 4.76 | S 3.84 | Y 3.72 | N 4.08 | F 3.86 | C 2.73 | T 3.08 | D 3.81 | Q 4.19 | V 3.97 | I 3.49
G9: E 4.04 | D 4.5 | F 2.39 | I 3.48 | C 2.13 | H 3.21
G8: Q 3.87 | A 3.58 | E 5.24 | R 3.31 | M 3.46 | C 3.12 | N 3.14 | K 3.52 | F 2.43 | P 3.8 | Y 2.96 | T 4.16 | V 3.53 | D 4.5 | I 3.48 | L 3.72 | H 3.3 | S 2.9 | W 3.56
G3: I 2.02 | D 4.08 | F 3.31 | S 3.42 | C 3.41 | K 3.87 | H 4.17 | Y 3.54 | N 3.14 | T 3.3

Variants of: B2
Assay: as above
Settings: c terminus: a fixed tail appended

Protein stability index of substitutions, site by site:
E11: S 2.45 | T 2.35 | F 2.28 | V 2.29 | K 2.45 | N 3.33 | D 3.59 | H 2.68
N5: P 3.34 | S 2.77 | C 2.48 | Y 2.75 | R 2.79 | G 3.03 | V 2.4
F7: S 4.03 | T 3.99 | A 4.21 | D 4.24 | M 3.33 | R 3.69 | C 3.87 | N 4.05 | K 4.2 | G 4.18 | W 3.03
L22: C 3.58 | Q 4.02 | E 3.66 | I 2.53 | N 3.92 | G 3.57 | Y 2.9 | A 3.8 | P 3.56 | W 2.86 | H 3.42 | V 2.77
E4: W 2.19 | K 2.16 | D 3.25 | P 3.21 | N 2.92 | H 2.84 | I 2.02 | C 2.16 | V 1.83 | F 2.41
E9: C 2.17 | K 2.4 | I 1.63 | Y 2.12 | W 1.57 | D 3.47 | P 3.59 | F 1.82
Y19: W 2.61 | L 3.12 | M 3.22 | P 4.43 | S 3.79 | I 2.73 | A 4.12
